The target in test [1] is human RSV pre-fusion F protein (human respiratory syncytial virus (hRSV), UniProt P03420 26-513). Put plainly: ELISA on coated pre-F.
For test [2], the target named is human RSV post-fusion F protein LZF21 (human respiratory syncytial virus (hRSV), UniProt P03420 26-524). Put plainly: ELISA on coated post-F. A general note: In an ELISA, binding on a coated surface is turned into a signal by an enzyme label.
Test [3] addresses T1, human RSV post-fusion F protein LZF21 (human respiratory syncytial virus (hRSV), UniProt P03420 26-524).
T1 construct: extracellular domain; Trimeric; also called LZF21-biotin
Put plainly: SPR (Biacore). A general note: In SPR one partner is held on a chip, and binding of the other changes the refractive index at the surface.

Test [4] addresses T2, human RSV pre-fusion F protein (human respiratory syncytial virus (hRSV), UniProt P03420 26-513).
T2 construct: also called hRSV pre-F
Put plainly: SPR (Biacore).

Test [5] concerns the target T3, human RSV A F protein (ELISA of Example 6; pre- or post-fusion form not stated) (human RSV A, UniProt P03420 26-513). Put plainly: ELISA, RSV A F protein on the plate, antibody titrated, OD450.
Test [6] deals with T3, human RSV A F protein (ELISA of Example …). Put plainly: ELISA on coated F protein; lower end of the range.
Test [7] has as its target T2, human RSV pre-fusion F protein. Put plainly: ELISA on coated pre-F.
Test [8] addresses T1, human RSV post-fusion F protein LZF21. Put plainly: SPR, Biacore T200, 1:1 Langmuir fit.
Source text: (§1) Background subtraction binding sensorgrams were used for analyzing the rate constant of association (kₐ) and dissociation (kd), and the equilibrium dissociation constant KD. The resulting data sets were fitted with a 1:1 Langmuir Binding Model using the Biacore T200 evaluation software (version 2.0).
Test [9] concerns the target T2, human RSV pre-fusion F protein. Put plainly: SPR, Biacore T200, 1:1 Langmuir fit.
Source text: as §1
Test [10] addresses T4, RSV-F protein R429A mutant, expressed in human cells (UniProt P03420 26-574).
T4 construct: whole, on cells
Put plainly: shotgun mutagenesis alanine scan, antibody binding to F mutant expressed in human cells.

For test [11], the target named is T5, RSV-F protein I432A mutant, expressed in human cells (UniProt P03420 26-574).
T5 construct: whole, on cells
Described as above.

Test [12] addresses T1, human RSV post-fusion F protein LZF21. Put plainly: ELISA on coated post-F.

B1: D25 antibody (antibody, V domains shown)
VH: QVQLVQSGAEVKKPGSSVMVSCQASGGPLRNYIINWLRQAPGQGPEWMGGIIPVLGTVHYAPKFQGRVTITADESTDTAYIHLISLRSEDTAMYYCATETALVVSTTYLPHYFDNWGQGTLVTVSS
VL: DIQMTQSPSSLSAAVGDRVTITCQASQDIVNYLNWYQQKPGKAPKLLIYVASNLETGVPSRFSGSGSGTDFSLTISSLQPEDVATYYCQQYDNLPLTFGGGTKVEIKR
With B1, the half-maximal effective concentration (EC50) – broadly, the concentration at which the effect is half-maximal – in test [1] came out at 8.94 ng/mL.

B2: palivizumab (SYNAGIS) (antibody, V domains shown)
VH: QVTLRESGPALVKPTQTLTLTCTFSGFSLSTSGMSVGWIRQPPGKALEWLADIWWDDKKDYNPSLKSRLTISKDTSKNQVVLKVTNMDPADTATYYCARSMITNWYFDVWGAGTTVTVSS
VL: DIQMTQSPSTLSASVGDRVTITCKCQLSVGYMHWYQQKPGKAPKLLIYDTSKLASGVPSRFSGSGSGTEFTLTISSLQPDDFATYYCFQGSGYPFTFGGGTKLEIK
For the molecule B2, the concentration for a half-maximal effect (EC50) in test [1] was 17.4 ng/mL; in test [2], 10.5 ng/mL.

B3: RB1+YTE (human IgG1 with M252Y/S254T/T256E in the Fc) (antibody, V domains shown)
VH: EVQLVESGGGLVRPGRSLRLSCTVSGFSFDDSAMSWVRQAPGKGLEWISFIKSKTYGGTKEYAASVKGRFTISRDDSKNIAYLQMNSLKTEDTAVYYCTRGAPYGGNSDYYYGLDVWGQGTTVTVSS
VL: DIQMTQSPSSLSASVGDRVTITCRTSQDVRGALAWYQQKPGKAPKLLIFDASSLETGVPSRFSGSGSGTVFTLTISSLQPEDFAAYYCQQFLDFPFTFGQGTRLEIKR
B3: in [3], binding was characterised by a dissociation constant (Kd) of 0.48 nM; the off-rate constant (koff) (usually the first-order rate constant of dissociation) was 0.0007 s⁻¹; the kon (in general, the second-order rate constant of association) stood at 1.4e+06 M⁻¹ s⁻¹. Moreover, in [4], the Kd (usually the equilibrium constant for the complex coming apart) is 0.071 nM, the dissociation rate constant (koff) was found to be 0.00023 s⁻¹ and the kon was determined as 3.2e+06 M⁻¹ s⁻¹. Also, the response in [5] was half-maximal at 2.24 ng/mL (EC50). The same molecule had an EC50 in test [6] of 1.97 to 2.46 ng/mL.

B4: RB1 (recombinant human IgG1, CHO-3E7 expressed) (antibody, V domains shown)
VH: EVQLVESGGGLVRPGRSLRLSCTVSGFSFDDSAMSWVRQAPGKGLEWISFIKSKTYGGTKEYAASVKGRFTISRDDSKNIAYLQMNSLKTEDTAVYYCTRGAPYGGNSDYYYGLDVWGQGTTVTVSS
VL: DIQMTQSPSSLSASVGDRVTITCRTSQDVRGALAWYQQKPGKAPKLLIFDASSLETGVPSRFSGSGSGTVFTLTISSLQPEDFAAYYCQQFLDFPFTFGQGTRLEIKR
notes: Variable domains converted to human IgG1 and expressed in CHO-3E7 cells; also called RB1 MAb; anti-human RSV F protein antibody RB1
With B4, the Kd was 0.41 nM in test [3], 0.031 nM in test [4], 0.41 nM in test [8] and 0.031 nM in test [9]. Besides, the off-rate constant (koff) in test [3] turned out to be 0.0009 s⁻¹; in test [4] it was 0.00014 s⁻¹; in test [8], 0.0009 s⁻¹; in [9] it was 0.00014 s⁻¹. The kon in test [3] turned out to be 2.2e+06 M⁻¹ s⁻¹; in [4], 4.4e+06 M⁻¹ s⁻¹; in test [8], 2.2e+06 M⁻¹ s⁻¹; in [9], 4.4e+06 M⁻¹ s⁻¹. In addition, the EC50 came to 7.05 ng/mL in test [7] and 14.1 ng/mL in test [12]. Further, the entries for the “Binding Reactivity (% WT)” value in [10] and in test [11] were 33.1 % WT and 36.7 % WT, respectively.

Values taken from US20210188951A1 (Merck Sharp & Dohme, published 2021).
